According to patent publication US20160060340A1 (Kyowa Kirin, published 2016):
Each block holds one binder with its values, some of them ahead of it.

What was measured:
[1] = target: T1, FOLR1-mycHis (human, UniProt P15328 25-233); assay: SPR (Biacore T100), antibody of the supernatant captured on CM5 chip, FOLR1-mycHis as analyte, single-cycle kinetics, 1:1 binding model
T1 construct: Secreted from CHO/DG44 cells, purified on Ni-NTA; Residues 1-233 include the native signal peptide; also called non-reducing FOLR1-mycHis; recombinant protein having myc and His tag at the C-terminus of FOLR1 (1-233 amino acids); not shown: myc and His tag at the C-terminus
T1 sequence (P15328 25-233): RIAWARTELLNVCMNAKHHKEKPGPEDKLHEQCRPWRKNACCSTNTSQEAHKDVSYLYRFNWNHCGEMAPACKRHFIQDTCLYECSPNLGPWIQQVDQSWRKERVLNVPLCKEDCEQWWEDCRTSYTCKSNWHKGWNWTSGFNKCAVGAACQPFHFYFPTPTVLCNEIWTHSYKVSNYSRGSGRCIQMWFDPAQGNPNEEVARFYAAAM
Text: After cloning, the hybridoma culture supernatant was used to measure its affinity for FOLR1 by a surface plasmon resonance method. As instruments for measurement, Biacore T100 (GE Healthcare), and CM5 chip (GE Healthcare) were used. First, Mouse Antibody Capture Kit (GE Healthcare) was immobilized onto the CM5 chip by amine coupling.
Subsequently, the hybridoma culture supernatant was applied using HBS-EP+buffer (GE Healthcare), and the antibodies contained in the supernatant were captured on the CM5 chip. Subsequently, FOLR1-mycHis prepared by five-step dilution (188, 375, 750, 1500, 3000 ng/mL) was applied as an analyte.
(§1) The affinity was analyzed from association constant (Ka) and dissociation constant (Kd) by Single-cycle kinetics. Kinetic constants (ka, kd, KD) were calculated by 1:1 binding model using a Biacore T-100 Evaluation software (GE Healthcare).

[2] = target: T2, cynomolgus monkey FOLR1 (on JTC-12 cells) (cynomolgus monkey, UniProt P15328 25-234 (human entry)); assay: flow cytometry on cynomolgus monkey kidney-derived cell line JTC-12
T2 construct: Endogenous FOLR1 of the cynomolgus monkey kidney-derived cell line JTC-12; also called CyFOLR1
T2 sequence (P15328 other isoform, or with tags, fused parts or gaps limits assumed): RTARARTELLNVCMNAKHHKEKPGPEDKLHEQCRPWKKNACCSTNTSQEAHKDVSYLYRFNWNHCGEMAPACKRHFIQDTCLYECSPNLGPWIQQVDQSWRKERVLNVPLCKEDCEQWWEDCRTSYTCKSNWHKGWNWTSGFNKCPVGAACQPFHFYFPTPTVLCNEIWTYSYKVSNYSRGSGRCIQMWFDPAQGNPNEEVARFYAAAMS
Description: Subsequently, the cells were seeded in a 96-well plate at a density of 2×10⁵ cells/well, followed by centrifugation at 1500 rpm for 1 minute. After the supernatant was discarded, 50 μL of RA15-7 culture supernatant was added to each well, and allowed to react at 4° C. for 30 minutes.
Cells were washed, and then Alexa488-labeled anti-rat IgG(H+L) polyclonal antibody (Invitrogen) diluted in 1% BSA/PBS was added thereto, and they were allowed to react at 4° C. for 30 minutes. The cells were washed again, and then suspended in 1% BSA/PBS, and fluorescent intensity was analyzed by flow cytometry.
In the same manner, the reactivity of the RA15-7 culture supernatant to cynomolgus monkey kidney-derived cell line JTC-12 (RCB1485, RIKEN CELL BANK) was also analyzed by flow cytometry.

[3] = target: T3, cynomolgus monkey FOLR1-Fc (cynomolgus monkey; human); assay: ELISA: antibody captured by anti-rat IgG, Fc fusion added, anti-human IgG-POD
T3 construct: Expressed in CHO/Ms704 cells; also called CyFOLR1-Fc; not shown: Human IgG1 Fc (Hinge region and CH2-CH3 region) from pKANTEX93, added to the C-terminus
T3 sequence (chain, as listed by the source): as the sequence (P15328 25-233) above, with I2T, W4R, R37K, A146P, H171Y counted along it
Description: Each well was washed with PBS, and then 100 μL/well of 1% BSA/PBS was added at room temperature for 1 hour for blocking. Each well was washed with PBS again, and 50 μL/well of the RA15-7 culture supernatant was added, and allowed to react at room temperature for 1 hour. Each well was washed with 0.05% tween20/PBS, and 50 μL/well of FOLR1-Fc, FOLR2-Fc, FOLR3-Fc, and cynomolgus monkey FOLR1-Fc which were diluted in 1% BSA/PBS were added, and allowed to react at room temperature for 1 hour.
(§2) Each well was washed with 0.05% tween20/PBS, and then 50 μL/well of Goat anti-human IgG(H+L)-POD (American Qualex) which was diluted 2000-fold in 1% BSA/PBS was added and allowed to react at room temperature for 1 hour. Each well was washed with PBS, and then 50 μL/well of ABTS substrate solution was added, and allowed to react at room temperature. After sufficient color development was confirmed, 50 μL/well of 5% SDS solution was added to terminate the reaction, and absorbance at 415 nm was measured.

[4] = target: T1, FOLR1-mycHis; assay: SPR (Biacore T100), antibody captured with Human Antibody Capture Kit, FOLR1-mycHis as analyte, 1:1 binding model
Description: as §1
(§3) The affinities of ChRA15-7Acc antibody and MORAb-003 antibody for FOLR1 were measured by a surface plasmon resonance method. The measurement was carried out in the same manner as in Example 16, except that a Human Antibody Capture Kit (GE Healthcare) was immobilized onto the CM5 chip by amine coupling and FOLR1-mycHis prepared by five-step dilution (12.3, 37, 111, 333, 1000 ng/mL) was applied as an analyte.

[5] = target: T4, Rat4-FOLR1-mycHis (human with a rat segment); assay: ELISA, antigen coated at 10 µg/mL, antibody 14-10000 ng/mL; white circle indicates that reaction occurred
T4 construct: also called rat/human chimeric FOLR1-mycHis (human 91-95 replaced by rat 89-93)
T4 sequence (chain, as listed by the source limits assumed): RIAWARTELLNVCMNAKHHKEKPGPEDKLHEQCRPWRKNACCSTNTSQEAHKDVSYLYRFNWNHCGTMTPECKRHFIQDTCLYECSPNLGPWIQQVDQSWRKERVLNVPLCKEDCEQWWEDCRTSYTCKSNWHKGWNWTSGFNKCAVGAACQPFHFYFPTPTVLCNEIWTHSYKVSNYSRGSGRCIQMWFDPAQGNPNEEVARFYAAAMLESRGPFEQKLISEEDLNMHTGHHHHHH
Description: (§4) First, each 50 μL/well of FOLR1-mycHis, Rat1-FOLR1-mycHis, Rat2-FOLR1-mycHis, and Rat4-FOLR1-mycHis which were prepared at a concentration of 10 μg/mL using PBS was […] in a 96-well plate for ELISA, and then incubated at 4° C. overnight. Each well was washed with PBS, and then 200 μL/well of 1% BSA/PBS was added at room temperature for 1 hour for blocking.

[6] = target: T5, Rat2-FOLR1-mycHis (human with a rat segment); assay: ELISA, antigen coated at 10 µg/mL; x indicates that no reaction occurred
T5 construct: also called rat/human chimeric FOLR1-mycHis (human 55-62 replaced by rat 53-60)
T5 sequence (chain, as listed by the source limits assumed): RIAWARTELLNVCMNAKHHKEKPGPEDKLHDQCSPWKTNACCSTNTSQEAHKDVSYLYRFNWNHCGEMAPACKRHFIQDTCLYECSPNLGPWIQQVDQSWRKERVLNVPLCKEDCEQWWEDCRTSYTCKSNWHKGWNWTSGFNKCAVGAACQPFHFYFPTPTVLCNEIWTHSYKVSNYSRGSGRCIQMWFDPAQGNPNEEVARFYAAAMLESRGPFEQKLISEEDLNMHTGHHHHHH

[7] = target: T3, cynomolgus monkey FOLR1-Fc; assay: ELISA, antigen coated at 2 ug/mL, antibody 1.4-1000 ng/mL, goat anti-human kappa-HRP, ABTS, absorbance at 415 nm [d]
Description: First, each 50 μL/well of FOLR1-Fc, FOLR2-Fc, FOLR3-Fc, and cynomolgus monkey FOLR1-Fc which were prepared at a concentration of 2 μg/mL using PBS was added in a 96-well plate for ELISA and incubated at 4° C. overnight. It was washed with PBS, and then 200 μL/well of 1% BSA/PBS wad added at room temperature for 1 hour for blocking. It was washed with PBS again, and each 50 μL/well of HuRA15-7CTDF antibody, ChRA15-7DF antibody, MORAb-003DF antibody, and defucosylated anti-DNP human IgG1 (DNPDF) antibody as a negative control which were prepared by seven-step dilution (1.4, 4.1, 12, 37, 111, 333, 1000 ng/mL) in 1% BSA/PBS was added, and allowed to react at room temperature for 1 hour.
as §2, with “Goat anti-Human kappa-HRP (Southern Biotech)” for “Goat anti-human IgG(H+L)-POD (American Qualex)”, “2000-fold using” for “2000-fold in”, “confirmed,” for “confirmed, 50 μL/well of”

[8] = target: T5, Rat2-FOLR1-mycHis; assay: ELISA as in Example 35, antigen coated; x indicates that no reaction occurred
Description: as §4
(§5) In the same manner as in Example 35, reactivities of ChRA15-7Acc antibody, MORAb-003 antibody, MOv18 antibody, and HuRA15-7CTAcc antibody were evaluated using FOLR1-mycHis prepared in Example 11 and Rat1-FOLR1-mycHis, Rat2-FOLR1-mycHis, Rat4-FOLR1-mycHis prepared in Example 34.

[9] = target: T4, Rat4-FOLR1-mycHis; assay: ELISA as in Example 35, antigen coated; white circle indicates that reaction occurred
Description: as §4, §5

[10] = target: T1, FOLR1-mycHis; assay: SPR as in Example 29, antibody captured, FOLR1-mycHis as analyte, 1:1 binding model
Description: as §3
In the same manner as in Example 29, affinity of HuRA15-7CTAcc antibody for FOLR1 was measured by the surface plasmon resonance method.

Kd [1]: 1900 pM
binding result [2]: binds
binding result [3]: binds
B1: RA15-7 antibody (antibody, V domains shown)
VH: EVKLLESGGGLVQPGGSMRLSCAASGFTFTDFYMNWIRQPAGKAPEWLGFIRNKANGYTTEFNPSVKGRFAISRDNTQNMLYLQMNTLRAEDTATYYCARCLYGYAYYYVMDAWGQGTSVTVSS
VL: DIQMTQSPASLSASLGETVTIECRTSEDIFRNLAWYQQRPGNSPQLLIYDTNRLADGVPSRFSGSGSGTQYSLKINSLQSEDVAGYFCQQYDNYPLTFGSGTKLEIK
notes: also called antibody contained in the RA15-7 culture supernatant; culture supernatant of hybridoma RA15-7 clone

Kd [4]: 570 pM
koff [4]: 0.001 s⁻¹
binding result [5]: binds
binding result [6]: no binding (tested: up to 10000 ng/mL)
B2: ChRA15-7Acc antibody (antibody, human IgG1, V domains shown)
VH: B1 VH
VL: B1 VL
notes: Defucosylated, made in CHO/Ms704 cells; also called CDC enhancement technology-applied defucosylated ChRA15-7; rat/human chimeric RA15-7

binding result [7]: binds
B3: HuRA15-7CTDF antibody (antibody, human IgG1, V domains shown)
VH: EVQLVESGGGLVQPGGSLRLSCAASGFTFTDFYMNWVRQPPGKAPEWLGFIRNKANGYTTEFNPSVKGRFTISRDNSKNSLYLQMNSLKTEDTATYYCARTLYGYAYYYVMDAWGQGTLVTVSS
VL: DIQMTQSPSSLSASLGDRVTITCRTSEDIFRNLAWYQQKPGKAPKLLIYDTNRLADGVPSRFSGSGSGTDYTLTISSLQPEDFATYFCQQYDNYPLTFGQGTKLEIK
notes: defucosylated, made in CHO/Ms704 cells; also called defucosylated HuRA15-7CT

binding result [8]: no binding (tested: up to 10000 ng/mL)
binding result [9]: binds
Kd [10]: 650 pM
koff [10]: 0.00108 s⁻¹
B4: HuRA15-7CTAcc antibody (antibody, human IgG1, V domains shown)
VH: B3 VH
VL: B3 VL
notes: Defucosylated, made in CHO/Ms704 cells; also called CDC enhancement technology-applied defucosylated HuRA15-7CT
